The supplement of paper PMC7125110
± gives the standard error. For some of these results: Variants at the floor of the assay were thinned out.

B1: glmS ribozyme (parent)
chain: AUAAAAGCGCCAGAACUACAGAAAUGUAGUUGACGAGGAGGAGGUUUAUCGAAUUUUCGGCGGAUGCCUCCAAA

How the values were obtained:
Settings in all cases: with glucosamine-6-phosphate
[1] = variants of: B1; test: kcat; higher = faster cleavage; RNA array
Method in brief: (§1)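 Barcoded glmS ribozyme variants on sequenced MiSeq chips were transcribed in situ by E. coli RNA polymerase and tracked through a hybridised Cy3 probe at 37 °C. Glucosamine-6-phosphate (40 μM to 10 mM) in HEPES/KCl/Mg(OAc)2 buffer was flowed in, and tiles were imaged over ~14 h. Signals were normalised to baseline and to non-cleaving reference variants; per-tile medians were fit to one- or two-exponential decays to give kobs. kcat and KM came from weighted Michaelis–Menten fits across concentrations.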

[2] = variants of: B1; test: self-cleavage kobs at 40 uM GlcN6P; higher = faster cleavage; RNA array
Method in brief: as §1

[3] = variants of: B1; test: self-cleavage kobs at 10000 uM GlcN6P; higher = faster cleavage; RNA array
Method in brief: as §1

[4] = variants of: B1; test: KM; higher = weaker cofactor use; RNA array
Method in brief: as §1

[5] = variants of: B1; test: self-cleavage kobs at 160 uM GlcN6P; higher = faster cleavage; RNA array
Method in brief: as §1

[6] = variants of: B1; test: self-cleavage kobs at 640 uM GlcN6P; higher = faster cleavage; RNA array
Method in brief: as §1

[7] = variants of: B1; test: self-cleavage kobs at 2500 uM GlcN6P; higher = faster cleavage; RNA array
Method in brief: as §1

| Variant | kcat [1] [s⁻¹] | self-cleavage kobs at 40 uM GlcN6P [2] [s⁻¹] | self-cleavage kobs at 10000 uM GlcN6P [3] [s⁻¹] | KM [4] [µM] | self-cleavage kobs at 160 uM GlcN6P [5] [s⁻¹] | self-cleavage kobs at 640 uM GlcN6P [6] [s⁻¹] | self-cleavage kobs at 2500 uM GlcN6P [7] [s⁻¹] |
| --- | --- | --- | --- | --- | --- | --- | --- |
| A6C C61A | < 1e-05 | < 1e-05 | < 1e-05 | – | – | – | – |
| U47G A64G C70G | 3.26e-05 ± 9.4e-06 | < 1e-05 | – | – | – | – | – |
| G32U | 0.00158 ± 5.1e-05 | 1.52e-05 ± 1.4e-06 | 0.00104 ± 1.4e-05 | 5150 ± 240 | 4.88e-05 ± 1.7e-06 | 0.000173 ± 2.7e-06 | 0.000508 ± 1e-05 |
| G40U C71U | 0.00842 ± 0.0008 | 0.000232 ± 1.6e-05 | 0.00794 ± 0.00065 | 1490 ± 200 | 0.000742 ± 0.00011 | 0.00248 ± 0.00024 | 0.00464 ± 0.0005 |
| C8U G51U C70U | 1.2e-05 ± 2.2e-06 | < 1e-05 | – | – | – | – | – |
| C10U A15G | 2.54e-05 ± 2e-06 | < 1e-05 | – | 4700 ± 910 | – | – | – |
| C50A C70A | 4.02e-05 ± 1.1e-05 | – | – | – | 3.47e-05 ± 1.5e-05 | 3.8e-05 ± 1.3e-05 | 5.27e-05 ± 1e-05 |
| G29C G66U | 6.74e-05 ± 1.2e-05 | – | 5.98e-05 ± 1e-05 | – | – | – | 7.9e-05 ± 2e-05 |
| G35C C68U | < 1e-05 | < 1e-05 | – | – | < 1e-05 | – | – |
| A12U G41A | 0.00189 ± 0.00051 | 0.000183 ± 2e-05 | 0.00216 ± 0.00028 | 456 ± 210 | 0.00038 ± 0.00011 | 0.00073 ± 0.00014 | 0.00213 ± 0.0004 |
| U45C U56G | 0.00225 ± 0.00059 | – | 0.00156 ± 0.00019 | 4840 ± 1800 | 5.85e-05 ± 1.2e-05 | 0.000335 ± 4.1e-05 | 0.000677 ± 0.00011 |
| A39G G40U | 0.0022 ± 0.00044 | 9.64e-05 ± 1.6e-05 | 0.00197 ± 0.00022 | 1420 ± 510 | 0.000207 ± 4.9e-05 | 0.000551 ± 8.8e-05 | 0.0015 ± 0.00022 |
| A53C C58U | 3.83e-05 ± 9.3e-06 | < 1e-05 | – | – | < 1e-05 | – | – |
| U46A G60A | < 1e-05 | – | – | – | – | < 1e-05 | – |
| A33C G66U | 2.18e-05 ± 4.2e-07 | < 1e-05 | – | 2420 ± 190 | – | – | – |
| A39C A48G U55C | 6.53e-05 ± 4.8e-06 | < 1e-05 | 2.91e-05 ± 1.2e-05 | – | – | – | – |
| G32A G37A | 0.00051 ± 0.00011 | – | 0.000143 ± 1.8e-05 | – | – | – | 4.62e-05 ± 1e-05 |
| G13U C58U C67G | 2.59e-05 ± 5.8e-06 | – | – | – | – | – | – |
| G32U A52G | 8.92e-05 ± 4.7e-06 | – | 6.6e-05 ± 5.2e-06 | 3490 ± 570 | – | – | 3.86e-05 ± 7.8e-06 |
